Test results taken from article PMC4504036.

Tests used:
[1] = biological target: Recombinant wild-type phospholipid transfer protein (rPLTP) (human) (UniProt P55058); experiment: SPR; BIAcore 3000; rPLTP with C-terminal His-tag captured on anti-His tag monoclonal antibody immobilised on a CM5 chip; factor XII (0-750 nM) or factor XI injected; 50 mM Hepes, 150 mM NaCl, 5 mM CaCl2, pH 7.4; global fit, simple Langmuir model; apparent Kd
[2] = biological target: Human factor XII (human)
[3] = biological target: Human factor XII (human); remark: listed apart in the source

| Kd [1] | koff [1] | kon [1] | inhibition by rPLTP of sulfatide-induced kallikrein generation (contact activation) in plasma (S2302 amidolytic activity at 6 min) [2] | inhibition by rPLTP of sulfatide-stimulated factor XII autoactivation in a purified system in the presence of VLDL (factor XIIa amidolytic activity, S2302, at 15 min) [3] | Substance |
| --- | --- | --- | --- | --- | --- |
| 190 nM | 0.006 s⁻¹ | 31000 M⁻¹ s⁻¹ |  |  | Human factor XII (natural protein) |
|  |  |  | 0.69 µg/mL | 1.2 µg/mL | Recombinant wild-type phospholipid transfer protein (rPLTP) (from UniProt P55058 18-493) (natural protein) |
